{
  "source": "paper PMC10197521",
  "about": "(bioRxiv, 2023)",
  "binders": {"B1": {"name": "Src kinase LCK (enzyme, UniProt P06240 1-509, looked up)", "chain": "MGCVCSSNPEDDWMENIDVCENCHYPIVPLDSKISLPIRNGSEVRDPLVTYEGSLPPASPLQDNLVIALHSYEPSHDGDLGFEKGEQLRILEQSGEWWKAQSLTTGQEGFIPFNFVAKANSLEPEPWFFKNLSRKDAERQLLAPGNTHGSFLIRESESTAGSFSLSVRDFDQNQGEVVKHYKIRNLDNGGFYISPRITFPGLHDLVRHYTNASDGLCTKLSRPCQTQKPQKPWWEDEWEVPRETLKLVERLGAGQFGEVWMGYYNGHTKVAVKSLKQGSMSPDAFLAEANLMKQLQHPRLVRLYAVVTQEPIYIITEYMENGSLVDFLKTPSGIKLNVNKLLDMAAQIAEGMAFIEEQNYIHRDLRAANILVSDTLSCKIADFGLARLIEDNEYTAREGAKFPIKWTAPEAINYGTFTIKSDVWSFGILLTEIVTHGRIPYPGMTNPEVIQNLERGYRMVRPDNCPEELYHLMMLCWKERPEDRPTFDYLRSVLDDFFTATEGQYQPQP"}},
  "assay_in_all_cases": "co-IP",
  "key": {"T1-TP (2C)": {"molecular_target": "T1, T1-TP (2C) (mouse, UniProt P06332-1 27-422, G403V | G406L | C418S | C421S)", "T1 sequence (looked up)": "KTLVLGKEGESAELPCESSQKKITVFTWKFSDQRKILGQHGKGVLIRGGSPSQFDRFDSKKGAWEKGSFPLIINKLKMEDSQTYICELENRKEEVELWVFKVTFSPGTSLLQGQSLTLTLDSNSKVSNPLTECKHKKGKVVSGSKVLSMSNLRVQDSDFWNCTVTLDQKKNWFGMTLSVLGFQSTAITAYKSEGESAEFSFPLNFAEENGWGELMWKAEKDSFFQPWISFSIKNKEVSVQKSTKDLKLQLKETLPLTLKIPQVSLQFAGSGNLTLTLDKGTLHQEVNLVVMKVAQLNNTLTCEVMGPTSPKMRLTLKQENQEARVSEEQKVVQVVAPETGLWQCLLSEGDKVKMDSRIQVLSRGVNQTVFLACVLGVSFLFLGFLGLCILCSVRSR"}, "[1]": {"molecular_target": "T2, T1-TMD (CD4 T1 with GGXXG to GVXXL) (mouse, UniProt P06332-1 27-422, G403V | G406L)", "T2 sequence (looked up)": "T1 sequence (looked up) with S392C, S395C"}, "T1-TP (3C)": {"molecular_target": "T3, T1-TP (3C) (mouse, UniProt P06332-1 27-422, G403V | G406L | C417S | C418S | C421S)", "T3 sequence (looked up)": "T1 sequence (looked up) with C391S"}, "T1-Palm (2C)": {"molecular_target": "T4, T1-Palm (2C) (mouse, UniProt P06332-1 27-422, C418S | C421S)", "T4 sequence (looked up)": "T1 sequence (looked up) with V377G, L380G"}, "[2]": {"molecular_target": "T5, C-terminally truncated mouse CD4 T1 (mouse, UniProt P06332-1 27-422)", "T5 sequence (looked up)": "T1 sequence (looked up) with V377G, L380G, S392C, S395C"}},
  "note": "Changes are numbered by the printed parent chain.",
  "data": [
    {"binder": "B1", "values": [
      {"measurement": "Lck DRM AUC (LCK found with CD4, normalised to CD4), percent of T1", "setting": "T1-TP (2C)", "value": "121 % of T1 control"},
      {"measurement": "Lck DSM AUC (LCK found with CD4, normalised to CD4), percent of T1", "setting": "T1-TP (2C)", "value": "115 % of T1 control"},
      {"measurement": "Lck Total AUC (LCK found with CD4, normalised to CD4), percent of T1", "setting": "T1-TP (2C)", "value": "113 % of T1 control"},
      {"measurement": "Lck DRM AUC (LCK found with CD4, normalised to CD4), percent of T1", "setting": "[1]", "value": "62.4 % of T1 control"},
      {"measurement": "Lck DSM AUC (LCK found with CD4, normalised to CD4), percent of T1", "setting": "[1]", "value": "111 % of T1 control"},
      {"measurement": "Lck Total AUC (LCK found with CD4, normalised to CD4), percent of T1", "setting": "[1]", "value": "93 % of T1 control"},
      {"measurement": "Lck DRM AUC (LCK found with CD4, normalised to CD4), percent of T1", "setting": "T1-TP (3C)", "value": "86.8 % of T1 control"},
      {"measurement": "Lck DSM AUC (LCK found with CD4, normalised to CD4), percent of T1", "setting": "T1-TP (3C)", "value": "103 % of T1 control"},
      {"measurement": "Lck Total AUC (LCK found with CD4, normalised to CD4), percent of T1", "setting": "T1-TP (3C)", "value": "101 % of T1 control"},
      {"measurement": "Lck DRM AUC (LCK found with CD4, normalised to CD4), percent of T1", "setting": "T1-Palm (2C)", "value": "274 % of T1 control"},
      {"measurement": "Lck DSM AUC (LCK found with CD4, normalised to CD4), percent of T1", "setting": "T1-Palm (2C)", "value": "131 % of T1 control"},
      {"measurement": "Lck Total AUC (LCK found with CD4, normalised to CD4), percent of T1", "setting": "T1-Palm (2C)", "value": "139 % of T1 control"},
      {"measurement": "Lck DRM AUC (LCK found with CD4, normalised to CD4), percent of WT", "setting": "[2]", "value": "28.8 % of WT control"},
      {"measurement": "Lck DSM AUC (LCK found with CD4, normalised to CD4), percent of WT", "setting": "[2]", "value": "16.1 % of WT control"},
      {"measurement": "Lck Total AUC (LCK found with CD4, normalised to CD4), percent of WT", "setting": "[2]", "value": "19.2 % of WT control"}
    ]}
  ]
}
